Results on 8 molecules are retold here after patent publication US20090042251.

Series [1] has as its target reduced and carboxymethylated (S54G, P55N)-RNase T1 (UniProt P00651).
Series [2] concerns the target T1, reduced and carboxymethylated (S54G, P55N)-RNase T1, P00651.
T1 chain: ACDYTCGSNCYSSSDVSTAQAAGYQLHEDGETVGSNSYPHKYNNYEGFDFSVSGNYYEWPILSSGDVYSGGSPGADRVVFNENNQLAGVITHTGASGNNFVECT

Take hFKBP12: in series [1], the Specificity constant kcat/KM (RCM-T1 refolding assay) is 14000 M⁻¹ s⁻¹.

B1: SlyD* (SlyD 1-165) (protein)
chain: MKVAKDLVVSLAYQVRTEDGVLVDESPVSAPLDYLHGHGSLISGLETALEGHEVGDKFDVAVGANDAYGQYDENLVQRVPKDVFMGVDELQVGMRFLAETDQGPVPVEITAVEDDHVVVDGNHMLAGQNLKFNVEVVAIREATEEELAHGHVHGAHDHHHDHDHDHHHHHH
In the case of B1, in series [2], the Specificity constant kcat/KM (RCM-T1 refolding assay) stood at 680000 M⁻¹ s⁻¹ and the “concentration at which refolding of RCM-T1 is twofold accelerated” value is “In the presence of as low as 2 nM SlyD* refolding of RCM-T1 is already twofold accelerated”.

B2: TcFKBP18 (protein)
chain: MKVEAGDYVLFHYVGRFEDGEVFDTSYEEIARENGILVEEREYGPMWVRIGVGEIIPGLDEAIIGMEAGEKKTVTVPPEKAYGMPNPELVISVPREEFTKAGLEPQEGLYVMTDSGIAKIVSVGESEVSLDFNHPLAGKTLVFEVEVIEVKKAEEDSEA
With B2, the Specificity constant kcat/KM (RCM-T1 refolding assay) in series [2] stood at 600000 M⁻¹ s⁻¹.

B3: hFKBP12-IF5 (protein)
chain: GVQVETISPGDGRTFPKRGQTCVVHYTGMLEDGKKFDSSRDRNKPFKFMLGKQEVIRGWEEGVAQMSVGQRAKLTISPDYAYGMPNPELVISVPREEFTKAGLEPQEGLYVMTDSGIAKIVSVGESEVSLDFNHPLAGKTLVFDVELLKLEHHHHHH
In series [2], B3 yielded a Specificity constant kcat/KM (RCM-T1 refolding assay) of 660000 M⁻¹ s⁻¹.

B4: hFKBP12-IF1 (C22A) (protein)
chain: GVQVETISPGDGRTFPKRGQTAVVHYTGMLEDGKKFDSSRDRNKPFKFMLGKQEVIRGWEEGVAQMSVGQRAKLTISPDYAYGQYDENLVQRVPKDVFMGVDELQVGMRFLAETDQGPVPVEITAVEDDHVVVDGNHMLAGQNLVFDVELLKLEHHHHHH
As to B4, in series [2], the Specificity constant kcat/KM (RCM-T1 refolding assay) is 2.5e+06 M⁻¹ s⁻¹, the “concentration sufficient to double the folding rate of RCM-T1” value is “Less than 1 nM FKBP12-IF1 are sufficient to double the folding rate of RCM-T1” and the specificity constant result is on record as “higher than 2.5×10^6 M^-1s^-1”.

B5: SlpA (protein)
chain: SESVQSNSAVLVHFTLKLDDGTTAESTRNNGKPALFRLGDASLSEGLEQHLLGLKVGDKTTFSLEPDAAFGVPSPDLIQYFSRREFMDAGEPEIGAIMLFTAMDGSEMPGVIREINGDSITVDFNHPLAGQTVHFDIEVLEIDPALEAHHHHHH
B5 returned a Specificity constant kcat/KM (RCM-T1 refolding assay) in series [2] of less than 1000 M⁻¹ s⁻¹.

B6: SlyD* ΔIF loop (protein)
chain: MKVAKDLVVSLAYQVRTEDGVLVDESPVSAPLDYLHGHGSLISGLETALEGHEVGDKFDVAVGANDAYGATGHPGIIPPHATLKFNVEVVAIREATEEELAHGHVHGAHDHHHDHDHDHHHHHH
For the molecule B6, in series [2], the Specificity constant kcat/KM (RCM-T1 refolding assay) worked out at 500 M⁻¹ s⁻¹ and the “specificity constant relative to SlyD*” value is “amounts to only 0.07% of SlyD*”.

B7: hFKBP12-IF4 (protein)
chain: GVQVETISPGDGRTFPKRGQTAVVHYTGMLEDGKKFDSSRDRNKPFKFMLGKQEVIRGWEEGVAQMSVGQRAKLTISPDYAYGVPSPDLIQYFSRREFMDAGEPEIGAIMLFTAMDGSEMPGVIREINGDSITVDFNHPLAGQTLVFDVELLKLEHHHHHH
B7: in series [2], the Specificity constant kcat/KM (RCM-T1 refolding assay) was 850000 M⁻¹ s⁻¹ and the “specificity constant (kcat/KM)” value was 800.000 M⁻¹ s⁻¹.
